Results reported in doi:10.1101/2020.10.16.20213991 (medRxiv, 2020).

Target: the molecule itself
Assay: SEC

B1: cowpea chlorotic mottle virus (CCMV) coat protein (natural protein)
chain: MSTVGTGKLTRAQRRAAARKNKRNTRVVQPVIVEPIASGQGKAIKAWTGYSVSKWTASCAAAEAKVTSAITISLPNELSSERNKQLKVGRVLLWLGLLPSVSGTVKSCVTETQTTAAASFQVALAVADNSKDVVAAMYPEAFKGITLEQLTADLTIYLYSSAALTEGDVIVHLEVEHVRPTFDDSFTPVY
  binding result: binds
